Assay results reported in US20120135923A1 (IPSEN PHARMA S A S, published 2012).
Bridge positions count the residues as written; N and C are the ends. Square brackets hold non-standard residues; d marks the D form. Ends that are not written are not given here. 2Nal = N[C@@H](Cc1ccc2ccccc2c1)C(=O)O; d2Nal = N[C@H](Cc1ccc2ccccc2c1)C(=O)O; Bta = N[C@@H](Cc1csc2ccccc12)C(=O)O; hPhe = N[C@@H](CCc1ccccc1)C(=O)O; Cha = N[C@@H](CC1CCCCC1)C(=O)O; dCha = N[C@H](CC1CCCCC1)C(=O)O; Chg = N[C@H](C(=O)O)C1CCCCC1; Pen = CC(C)(S)[C@H](N)C(=O)O; Nle = CCCC[C@H](N)C(=O)O; Ava = NCCCCC(=O)O; GABA = NCCCC(=O)O; βAla = NCCC(=O)O

Legend:
[1] = target: T1, hMC1-R (human, UniProt Q01726 1-317); experiment: competition with [125I]-NDP-α-MSH, CHO-K1 membranes
T1 construct: whole, on cells; Assayed as membranes of CHO-K1 cells expressing the receptor; also called hMC-R receptor subtype 1; melanocyte-specific receptor (MC1-R)
Experimental: (§1) Cellular membranes used for the in vitro receptor binding assays were obtained from transgenic CHO-K1 cells stably expressing hMC-R receptor subtypes 1, 3, 4 or 5. […] The pellets were resuspended in the same buffer and centrifuged at 50,000 g for 10 minutes at approximately 4° C. The washed pellets containing the cellular membranes were stored at approximately −80° C.
(§2) Competitive inhibition of [¹²⁵I](Tyr²)-(Nle⁴-D-Phe⁷)α-MSH ([¹²⁵I]-NDP-α-MSH, Amersham Biosciences®) binding was carried out in polypropylene 96 well plates. Cell membranes (1-10 μg protein/well) prepared as described above were incubated in 50 mM Tris-HCl at pH 7.4 containing 0.2% bovine serum albumin (BSA), 5 mM MgCl₂, 1 mM CaCl₂ and 0.1 mg/mL bacitracin, with increasing concentrations of the test compound and 0.1-0.3 nM […] for approximately 90-120 minutes at approximately 37° C. Bound [¹²⁵I]-NDP-α-MSH ligand was separated from free [¹²⁵I]-NDP-α-MSH by filtration through GF/C glass fiber filter plates (Unifilter®; Packard) presoaked with 0.1% (w/v) polyethylenimine (PEI), using a Packard Filtermate® harvester. Filters were washed three times with 50 mM Tris-HCl at pH 7.4 at a temperature of approximately 0-4° C. and then assayed for radioactivity using a Packard Topcount® scintillation counter. Binding data were analyzed by computer-assisted non-linear regression analysis (XL fit; IDBS).

[2] = target: T2, hMC3-R (human, UniProt P41968 1-323); experiment: as above
T2 construct: whole, on cells; Assayed as membranes of CHO-K1 cells expressing the receptor; also called hMC-R receptor subtype 3; melacortin-3 (MC3-R)
Experimental: as §1, §2

[3] = target: T3, hMC4-R (human, UniProt P32245 1-332); experiment: as above
T3 construct: whole, on cells; Assayed as membranes of CHO-K1 cells expressing the receptor; also called hMC-R receptor subtype 4; melanocortin-4 (MC4-R)
Experimental: as §1, §2

[4] = target: T4, hMC5-R (human, UniProt P33032 1-325); experiment: as above
T4 construct: whole, on cells; Assayed as membranes of CHO-K1 cells expressing the receptor; also called hMC-R receptor subtype 5; melanocortin-5 receptor (MC5-R)
Experimental: as §1, §2

[5] = target: T5, human melanocortin receptor subtype 1 (hMC1-R) (human, UniProt Q01726 1-317); experiment: [125I]-NDP-α-MSH competition, membranes
T5 construct: whole, on cells; membranes of CHO-K1 cells
Experimental: as §1, §2

[6] = target: T6, human melanocortin receptor subtype 4 (hMC4-R) (human, UniProt P32245 1-332); experiment: [125I]-NDP-α-MSH competition, membranes
T6 construct: whole, on cells; membranes of CHO-K1 cells
Experimental: as §1, §2

[7] = target: T7, human melanocortin receptor subtype 5 (hMC5-R) (human, UniProt P33032 1-325); experiment: [125I]-NDP-α-MSH competition, membranes
T7 construct: whole, on cells; membranes of CHO-K1 cells
Experimental: as §1, §2

T4 sequence (P33032 whole entry): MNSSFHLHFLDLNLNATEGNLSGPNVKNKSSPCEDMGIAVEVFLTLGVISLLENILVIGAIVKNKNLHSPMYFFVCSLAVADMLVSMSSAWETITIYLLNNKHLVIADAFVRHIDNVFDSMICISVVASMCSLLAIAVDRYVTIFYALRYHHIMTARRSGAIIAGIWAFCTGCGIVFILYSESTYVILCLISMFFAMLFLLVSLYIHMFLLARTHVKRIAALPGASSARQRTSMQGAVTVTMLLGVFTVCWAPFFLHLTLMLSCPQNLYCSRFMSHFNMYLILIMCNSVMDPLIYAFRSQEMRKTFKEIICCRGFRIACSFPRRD
T7 sequence (P33032 whole entry): as above
T1 sequence (Q01726 whole entry): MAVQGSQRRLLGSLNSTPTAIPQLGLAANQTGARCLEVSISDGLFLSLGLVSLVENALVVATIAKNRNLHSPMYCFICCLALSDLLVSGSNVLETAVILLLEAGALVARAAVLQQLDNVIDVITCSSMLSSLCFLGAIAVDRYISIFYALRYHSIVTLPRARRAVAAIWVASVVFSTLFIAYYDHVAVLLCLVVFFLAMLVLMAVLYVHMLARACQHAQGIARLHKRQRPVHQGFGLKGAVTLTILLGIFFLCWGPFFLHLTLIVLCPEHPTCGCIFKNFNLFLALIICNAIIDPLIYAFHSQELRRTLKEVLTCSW
T5 sequence (Q01726 whole entry): as above
T2 sequence (P41968 whole entry): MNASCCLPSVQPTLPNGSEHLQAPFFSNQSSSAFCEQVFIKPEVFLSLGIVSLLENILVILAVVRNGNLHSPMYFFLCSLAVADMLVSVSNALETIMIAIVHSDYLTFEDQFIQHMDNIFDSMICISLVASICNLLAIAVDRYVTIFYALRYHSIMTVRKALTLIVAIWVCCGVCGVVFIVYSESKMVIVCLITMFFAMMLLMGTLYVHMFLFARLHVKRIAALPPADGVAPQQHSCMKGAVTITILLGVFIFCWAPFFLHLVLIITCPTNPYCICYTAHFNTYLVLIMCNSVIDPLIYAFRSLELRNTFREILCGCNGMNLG
T3 sequence (P32245 whole entry): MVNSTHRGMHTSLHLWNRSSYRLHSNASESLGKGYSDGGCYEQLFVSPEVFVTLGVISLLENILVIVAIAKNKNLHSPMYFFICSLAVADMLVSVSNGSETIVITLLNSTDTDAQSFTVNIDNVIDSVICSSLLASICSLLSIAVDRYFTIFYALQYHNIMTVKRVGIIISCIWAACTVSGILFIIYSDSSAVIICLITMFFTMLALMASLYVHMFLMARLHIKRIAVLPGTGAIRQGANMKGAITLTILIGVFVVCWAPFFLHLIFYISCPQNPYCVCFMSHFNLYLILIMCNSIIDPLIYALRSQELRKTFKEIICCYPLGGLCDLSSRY
T6 sequence (P32245 whole entry): as above

Binder	Ki [1] [nM]	Ki [2] [nM]	Ki [3] [nM]	Ki [4] [nM]	Ki [5] [nM]	Ki [6] [nM]	Ki [7] [nM]
Ac-[Nle]DH[dF]RW[Ava]K-NH2 (lactam 2-8) [Ac-Nle-c(Asp-His-D-Phe-Arg-Trp-Apn-Lys)-NH2]	0.999	300	11.1	431			
RGC[dA]H[d2Nal]RWC-NH2 (disulfide 3-9; also: N-terminal hydantoin: C(O) bridges Arg1 N-alpha and Gly2 N, bridge at N via C(O), other end not in the chain) [Hydantoin(C(O)-(Arg-Gly))-c(Cys-D-Ala-His-D-2-Nal-Arg-Trp-Cys)-NH2]					11.9	0.195	
Ac-[Nle]C[dA]H[dF]RWGC-NH2 (disulfide 2-9; SMILES CCCC[C@H](NC(C)=O)C(=O)N[C@H]1CSSC[C@@H](C(N)=O)NC(=O)CNC(=O)[C@H](Cc2c[nH]c3ccccc23)NC(=O)[C@H](CCCNC(=N)N)NC(=O)[C@@H](Cc2ccccc2)NC(=O)[C@H](Cc2c[nH]cn2)NC(=O)[C@@H](C)NC1=O) [Ac-Nle-c(Cys-D-Ala-His-D-Phe-Arg-Trp-Gly-Cys)-NH2]		149	3.01	339			
[Nle]GC[dA]H[dF]RW[Pen]-NH2 (disulfide 3-9; also: N-terminal hydantoin: C(O) bridges X1 N-terminal N and G2 backbone N, bridge at N via C(O), other end not in the chain) [Hydantoin(C(O)-(Nle-Gly))-c(Cys-D-Ala-His-D-Phe-Arg-Trp-Pen)-NH2]					12.9	3.53	27.1
Ac-[Cha]DH[dF]RW[GABA]K-NH2 (lactam 2-8; SMILES CC(=O)N[C@@H](CC1CCCCC1)C(=O)N[C@H]1CC(=O)NCCCC[C@@H](C(N)=O)NC(=O)CCCNC(=O)[C@H](Cc2c[nH]c3ccccc23)NC(=O)[C@H](CCCNC(=N)N)NC(=O)[C@@H](Cc2ccccc2)NC(=O)[C@H](Cc2c[nH]cn2)NC1=O) [Ac-Cha-c(Asp-His-D-Phe-Arg-Trp-Gaba-Lys)-NH2]	0.106	11.8	1.49	110			
RGCEH[dF]RWC-NH2 (disulfide 3-9; also: hydantoin ring from C(O) with Arg1-Gly2) [Hydantoin(C(O)-(Arg-Gly))-c(Cys-Glu-His-D-Phe-Arg-Trp-Cys)-NH2]					8.59	2.44	7760
GGCEH[dF]RWC-NH2 (disulfide 3-9; also: hydantoin ring from C(O) with Gly1-Gly2) [Hydantoin(C(O)-(Gly-Gly))-c(Cys-Glu-His-D-Phe-Arg-Trp-Cys)-NH2]					11.9		73.9
GRCEH[dF]RWC-NH2 (disulfide 3-9; also: hydantoin ring from C(O) with Gly1-Arg2) [Hydantoin(C(O)-(Gly-Arg))-c(Cys-Glu-His-D-Phe-Arg-Trp-Cys)-NH2]					5.68	2.44	4220
Ac-CEH[d2Nal]R[2Nal]ACPPKD[βAla]GRKRRRQRRR-NH2 (disulfide 1-8)					5.66	0.446	6.23
Ac-[Nle]C[dCha]H[dF]RWC-NH2 (disulfide 2-8; SMILES CCCC[C@H](NC(C)=O)C(=O)N[C@H]1CSSC[C@@H](C(N)=O)NC(=O)[C@H](Cc2c[nH]c3ccccc23)NC(=O)[C@H](CCCNC(=N)N)NC(=O)[C@@H](Cc2ccccc2)NC(=O)[C@H](Cc2c[nH]cn2)NC(=O)[C@@H](CC2CCCCC2)NC1=O) [Ac-Nle-c(Cys-D-Cha-His-D-Phe-Arg-Trp-Cys)-NH2]	0.353	2.08	1.41				
Ac-[Nle]DH[dF]RW[GABA]K-NH2 (lactam 2-8) [Ac-Nle-c(Asp-His-D-Phe-Arg-Trp-Gaba-Lys)-NH2]	0.0506	9.89	1.04	16.3			
Ac-[dR]DH[dF]RWAK-NH2 (lactam 2-8) [Ac-D-Arg-c(Asp-His-D-Phe-Arg-Trp-Ala-Lys)-NH2]	0.79	45.5		493			
DH[d2Nal]RWK-NH2 (lactam 1-6; also: hydantoin ring: N-terminal N of Asp1 and backbone N of His2 bridged by one C(O), bridge at N via C(O), other end not in the chain) [c[Hydantoin(C(O)-(Asp-His))-D-2-Nal-Arg-Trp-Lys]-NH2]					200		
Ac-[Nle]DH[d2Nal]RWAK-NH2 (lactam 2-8) [Ac-Nle-c(Asp-His-D-2-Nal-Arg-Trp-Ala-Lys)-NH2]	1.17						
Ac-[Chg]DH[dF]RW[GABA]K-NH2 (lactam 2-8) [Ac-Chg-c(Asp-His-D-Phe-Arg-Trp-Gaba-Lys)-NH2]	0.884	223	22.5	609			
Ac-[Nle]D[dA]H[dF]R[Bta]AK-NH2 (lactam 2-9) [Ac-Nle-c(Asp-D-Ala-His-D-Phe-Arg-Bal-Ala-Lys)-NH2]	4.89		21.3	11.1			
Ac-CEH[dF]R[2Nal]AC-NH2 (disulfide 1-8) [Ac-c(Cys-Glu-His-D-Phe-Arg-2-Nal-Ala-Cys)-NH2]	262		96.4	1460			
Ac-CEH[d2Nal]R[2Nal]ACPPKD[βAla]RRRRRQRRR-NH2 (disulfide 1-8)					2.48		9.17
Ac-[Nle]C[dI]H[dF]RWC-NH2 (disulfide 2-8) [Ac-Nle-c(Cys-D-Ile-His-D-Phe-Arg-Trp-Cys)-NH2]	4.28		9	12.5			
Ac-[Nle]C[dV]H[dF]RWC-NH2 (disulfide 2-8) [Ac-Nle-c(Cys-D-Val-His-D-Phe-Arg-Trp-Cys)-NH2]	13	104		40			
[Nle]GCEH[dF]RWC-NH2 (disulfide 3-9; also: N-terminal hydantoin: C(O) bridges X1 N-terminal N and G2 backbone N, bridge at N via C(O), other end not in the chain) [Hydantoin(C(O)-(Nle-Gly))-c(Cys-Glu-His-D-Phe-Arg-Trp-Cys)-NH2]					14.3		67.8
Ac-[hPhe]DH[dF]RW[GABA]K-NH2 (lactam 2-8) [Ac-hPhe-c(Asp-His-D-Phe-Arg-Trp-Gaba-Lys)-NH2]		25.2	3.37	203			
Ac-CEH[d2Nal]R[2Nal]ACPPRD[βAla]RRRRRQRRR-NH2 (disulfide 1-8; SMILES CC(=O)N[C@H]1CSSC[C@@H](C(=O)N2CCC[C@H]2C(=O)N2CCC[C@H]2C(=O)N[C@@H](CCCNC(=N)N)C(=O)N[C@@H](CC(=O)O)C(=O)NCCC(=O)N[C@@H](CCCNC(=N)N)C(=O)N[C@@H](CCCNC(=N)N)C(=O)N[C@@H](CCCNC(=N)N)C(=O)N[C@@H](CCCNC(=N)N)C(=O)N[C@@H](CCCNC(=N)N)C(=O)N[C@@H](CCC(N)=O)C(=O)N[C@@H](CCCNC(=N)N)C(=O)N[C@@H](CCCNC(=N)N)C(=O)N[C@@H](CCCNC(=N)N)C(N)=O)NC(=O)[C@H](C)NC(=O)[C@H](Cc2ccc3ccccc3c2)NC(=O)[C@H](CCCNC(=N)N)NC(=O)[C@@H](Cc2ccc3ccccc3c2)NC(=O)[C@H](Cc2c[nH]cn2)NC(=O)[C@H](CCC(=O)O)NC1=O) [Ac-c(Cys-Glu-His-D-2-Nal-Arg-2-Nal-Ala-Cys)-Pro-Pro-Arg-Asp-β-[…]NH2]					2.63	0.0737	11.6
Ac-CEH[d2Nal]R[Bta]ACPPKD[βAla]RRKRRQRRR-NH2 (disulfide 1-8) [Ac-c(Cys-Glu-His-D-2-Nal-Arg-Bal-Ala-Cys)-Pro-Pro-Lys-Asp-β-[…]NH2]					3	0.442	15.5
